Data taken from US20200085917A1.

Assays:
Assay in all cases: GST pull-down, LC-MS/MS
[1] = target: Arf2_IPI:IPI00135730.1 (mouse) (UniProt Q8BSL7)
[2] = target: Asrgl1_IPI:IPI00223875.1 (mouse) (UniProt Q8C0M9)
[3] = target: Cisd1_IPI:IPI00128346.1 (mouse) (UniProt Q91WS0)
[4] = target: Nup210l_IPI:IPI00356451.5 (mouse) (UniProt Q9D2F7)
[5] = target: Afg3l2_IPI:IPI00170357.5 (mouse) (UniProt Q8JZQ2)
[6] = target: Gnb3_IPI:IPI00116938.1 (mouse) (UniProt Q61011)
[7] = target: Rhot1_IPI:IPI00123186.4 (mouse) (UniProt Q8BG51)
[8] = target: Ociad2_IPI:IPI00112139.1 (mouse) (UniProt Q9D8W7)
[9] = target: Letm1_IPI:IPI00131177.1 (mouse) (UniProt Q9Z2I0)
[10] = target: Mthfd1l_IPI:IPI00228113.5 (mouse) (UniProt Q3V3R1)
[11] = target: 1700020C11Rik_IPI:IPI00315908.1 (mouse)
[12] = target: Mpst_IPI:IPI00604945.2 (mouse) (UniProt Q99J99)
[13] = target: Prdx3_IPI:IPI00116192.1 (mouse) (UniProt P20108)
[14] = target: Acadsb_IPI:IPI00119842.1 (mouse) (UniProt Q9DBL1)
[15] = target: Slc6a11_IPI:IPI00136867.1 (mouse) (UniProt P31650)
[16] = target: Snap25_IPI:IPI00125635.1 (mouse) (UniProt P60879)
[17] = target: Dnajc19_IPI:IPI00111111.5 (mouse) (UniProt Q9CQV7)
[18] = target: Chchd3_IPI:IPI00133562.1 (mouse) (UniProt Q9CRB9)
[19] = target: Ywhaz_IPI:IPI00116498.1 (mouse) (UniProt P63101)
[20] = target: Stoml2_IPI:IPI00115117.1 (mouse) (UniProt Q99JB2)
[21] = target: Fahd1_IPI:IPI00468850.1 (mouse) (UniProt Q8R0F8)
[22] = target: Asah1_IPI:IPI00125266.1 (mouse) (UniProt Q9WV54)
[23] = target: Acad8_IPI:IPI00274222.2 (mouse) (UniProt Q9D7B6)
[24] = target: LOC100044454_IPI:IPI00135284.1 (mouse)
[25] = target: 5730469M10Rik_IPI:IPI00187272.3 (mouse)
[26] = target: Cisd3_IPI:IPI00345740.4 (mouse) (UniProt B1AR13)
[27] = target: Tim17a (endogenous, mouse forebrain mitochondria) (mouse) (UniProt Q9Z0V8)
[28] = target: Lyrm4_IPI:IPI00169804.1 (mouse) (UniProt Q8K215)
[29] = target: Rtn1_IPI:IPI00395193.1 (mouse) (UniProt Q8K0T0)
[30] = target: Gm6180_IPI:IPI00409405.2 (mouse)
[31] = target: Etfa_IPI:IPI00116753.4 (mouse) (UniProt Q99LC5)
[32] = target: Mrps33_IPI:IPI00135214.1 (mouse) (UniProt Q9D2R8)
[33] = target: Dnaja3_IPI:IPI00120414.1 (mouse) (UniProt Q99M87)

Tim17a (endogenous, mouse forebrain mitochondria) (mouse), sequence (Q9Z0V8 whole entry): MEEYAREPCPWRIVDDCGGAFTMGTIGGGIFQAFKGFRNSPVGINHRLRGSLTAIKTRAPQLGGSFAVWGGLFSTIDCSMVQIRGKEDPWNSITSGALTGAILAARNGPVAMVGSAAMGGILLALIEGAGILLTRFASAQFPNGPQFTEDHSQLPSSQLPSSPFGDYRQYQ
1700020C11Rik_IPI:IPI00315908.1 (mouse), sequence (Q9CRB8 whole entry): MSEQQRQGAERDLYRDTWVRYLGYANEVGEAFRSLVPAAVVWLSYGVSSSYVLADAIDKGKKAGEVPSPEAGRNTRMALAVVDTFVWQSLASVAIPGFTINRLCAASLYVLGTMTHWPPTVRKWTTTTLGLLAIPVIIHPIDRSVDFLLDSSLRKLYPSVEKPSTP
Lyrm4_IPI:IPI00169804.1 (mouse), sequence (Q8K215 whole entry): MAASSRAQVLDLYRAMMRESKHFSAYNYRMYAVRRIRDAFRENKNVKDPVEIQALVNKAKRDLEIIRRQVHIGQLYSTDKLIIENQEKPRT
Cisd3_IPI:IPI00345740.4 (mouse), sequence (B1AR13 whole entry): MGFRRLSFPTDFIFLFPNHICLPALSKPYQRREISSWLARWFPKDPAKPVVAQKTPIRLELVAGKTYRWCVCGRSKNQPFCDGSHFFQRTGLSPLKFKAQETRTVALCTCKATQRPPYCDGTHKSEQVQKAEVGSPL
Dnajc19_IPI:IPI00111111.5 (mouse), sequence (Q9CQV7 2-116 limits assumed): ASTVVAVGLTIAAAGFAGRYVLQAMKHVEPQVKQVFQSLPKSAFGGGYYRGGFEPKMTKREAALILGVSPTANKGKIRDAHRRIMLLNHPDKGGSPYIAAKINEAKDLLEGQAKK
Mrps33_IPI:IPI00135214.1 (mouse), sequence (Q9D2R8 2-106 limits assumed): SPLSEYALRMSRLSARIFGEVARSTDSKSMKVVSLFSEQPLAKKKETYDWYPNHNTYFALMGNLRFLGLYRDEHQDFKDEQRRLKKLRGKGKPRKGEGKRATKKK
Chchd3_IPI:IPI00133562.1 (mouse), sequence (Q9CRB9 2-227 limits assumed): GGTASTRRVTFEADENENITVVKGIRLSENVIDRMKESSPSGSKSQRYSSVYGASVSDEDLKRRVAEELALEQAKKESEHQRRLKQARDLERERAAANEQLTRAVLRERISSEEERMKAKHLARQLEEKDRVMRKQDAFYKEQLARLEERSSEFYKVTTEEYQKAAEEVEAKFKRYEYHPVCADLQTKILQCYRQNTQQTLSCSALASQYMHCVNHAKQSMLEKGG
5730469M10Rik_IPI:IPI00187272.3 (mouse), sequence (Q9CYH2 whole entry): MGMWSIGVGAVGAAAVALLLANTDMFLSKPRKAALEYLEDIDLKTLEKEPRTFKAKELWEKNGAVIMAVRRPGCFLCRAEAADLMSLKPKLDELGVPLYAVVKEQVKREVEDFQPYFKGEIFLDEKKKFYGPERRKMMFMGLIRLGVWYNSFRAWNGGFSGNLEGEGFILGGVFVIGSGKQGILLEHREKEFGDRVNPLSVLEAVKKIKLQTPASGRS
Stoml2_IPI:IPI00115117.1 (mouse), sequence (Q99JB2 29-353 limits assumed): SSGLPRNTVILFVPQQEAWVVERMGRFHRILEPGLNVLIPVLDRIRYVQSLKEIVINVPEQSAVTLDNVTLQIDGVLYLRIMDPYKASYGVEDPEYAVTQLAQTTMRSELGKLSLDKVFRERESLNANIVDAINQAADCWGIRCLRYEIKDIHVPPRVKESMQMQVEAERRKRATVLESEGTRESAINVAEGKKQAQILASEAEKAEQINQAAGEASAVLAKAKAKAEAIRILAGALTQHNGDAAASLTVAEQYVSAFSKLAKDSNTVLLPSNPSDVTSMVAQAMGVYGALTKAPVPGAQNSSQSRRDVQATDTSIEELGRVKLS
Acad8_IPI:IPI00274222.2 (mouse), sequence (Q9D7B6 21-413 limits assumed): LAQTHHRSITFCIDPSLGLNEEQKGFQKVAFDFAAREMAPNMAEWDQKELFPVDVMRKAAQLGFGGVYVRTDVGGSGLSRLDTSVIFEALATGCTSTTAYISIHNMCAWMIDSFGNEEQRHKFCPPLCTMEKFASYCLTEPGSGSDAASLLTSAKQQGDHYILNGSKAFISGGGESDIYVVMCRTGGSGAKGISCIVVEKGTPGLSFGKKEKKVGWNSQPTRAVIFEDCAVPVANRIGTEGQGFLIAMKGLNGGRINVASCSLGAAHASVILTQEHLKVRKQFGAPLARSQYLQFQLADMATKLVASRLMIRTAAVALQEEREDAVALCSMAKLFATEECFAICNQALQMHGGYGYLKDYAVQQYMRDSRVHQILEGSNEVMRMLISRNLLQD
Prdx3_IPI:IPI00116192.1 (mouse), sequence (P20108 63-257 limits assumed): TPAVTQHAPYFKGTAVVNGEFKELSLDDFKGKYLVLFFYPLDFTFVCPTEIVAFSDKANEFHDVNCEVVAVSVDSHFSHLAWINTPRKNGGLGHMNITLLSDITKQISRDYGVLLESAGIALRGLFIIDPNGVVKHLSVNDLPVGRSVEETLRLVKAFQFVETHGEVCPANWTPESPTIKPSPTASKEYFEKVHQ
Rhot1_IPI:IPI00123186.4 (mouse), sequence (Q8BG51 whole entry): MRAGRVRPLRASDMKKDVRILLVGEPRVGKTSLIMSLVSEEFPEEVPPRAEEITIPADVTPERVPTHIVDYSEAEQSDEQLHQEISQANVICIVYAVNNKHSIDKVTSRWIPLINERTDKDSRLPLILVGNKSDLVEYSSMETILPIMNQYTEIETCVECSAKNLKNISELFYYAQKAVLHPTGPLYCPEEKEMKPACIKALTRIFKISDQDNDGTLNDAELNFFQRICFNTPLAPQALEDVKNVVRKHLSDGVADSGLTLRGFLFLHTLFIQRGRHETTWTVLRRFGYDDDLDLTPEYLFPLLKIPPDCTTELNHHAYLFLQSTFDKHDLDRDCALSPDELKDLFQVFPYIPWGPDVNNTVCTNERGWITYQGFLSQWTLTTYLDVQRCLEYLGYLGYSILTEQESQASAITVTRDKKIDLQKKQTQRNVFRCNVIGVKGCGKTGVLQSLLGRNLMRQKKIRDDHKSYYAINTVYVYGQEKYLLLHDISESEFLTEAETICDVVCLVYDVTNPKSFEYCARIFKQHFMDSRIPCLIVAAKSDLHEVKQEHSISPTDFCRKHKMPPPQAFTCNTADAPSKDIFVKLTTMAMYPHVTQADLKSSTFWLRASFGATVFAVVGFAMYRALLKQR
Rtn1_IPI:IPI00395193.1 (mouse), sequence (Q8K0T0 whole entry): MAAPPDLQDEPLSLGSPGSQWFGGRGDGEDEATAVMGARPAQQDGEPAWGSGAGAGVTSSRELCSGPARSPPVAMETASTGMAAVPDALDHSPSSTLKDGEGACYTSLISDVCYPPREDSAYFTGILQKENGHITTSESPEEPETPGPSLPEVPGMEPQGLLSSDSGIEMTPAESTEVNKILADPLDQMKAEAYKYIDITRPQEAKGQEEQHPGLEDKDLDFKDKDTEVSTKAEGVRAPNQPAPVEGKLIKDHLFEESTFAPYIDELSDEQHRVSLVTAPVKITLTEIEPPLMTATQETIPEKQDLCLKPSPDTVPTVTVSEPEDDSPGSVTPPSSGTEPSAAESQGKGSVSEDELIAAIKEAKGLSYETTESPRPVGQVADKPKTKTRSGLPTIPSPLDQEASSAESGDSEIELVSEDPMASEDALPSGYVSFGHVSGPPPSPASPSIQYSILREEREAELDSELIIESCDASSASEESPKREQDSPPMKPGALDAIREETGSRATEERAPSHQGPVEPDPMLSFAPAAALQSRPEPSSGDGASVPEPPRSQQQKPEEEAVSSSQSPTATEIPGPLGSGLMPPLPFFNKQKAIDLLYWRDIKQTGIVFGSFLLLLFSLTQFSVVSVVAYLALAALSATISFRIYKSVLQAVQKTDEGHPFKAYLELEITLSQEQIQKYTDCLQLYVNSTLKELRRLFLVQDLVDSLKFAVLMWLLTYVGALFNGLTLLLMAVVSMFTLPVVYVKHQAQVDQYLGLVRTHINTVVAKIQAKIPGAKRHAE
Asrgl1_IPI:IPI00223875.1 (mouse), sequence (Q8C0M9 whole entry): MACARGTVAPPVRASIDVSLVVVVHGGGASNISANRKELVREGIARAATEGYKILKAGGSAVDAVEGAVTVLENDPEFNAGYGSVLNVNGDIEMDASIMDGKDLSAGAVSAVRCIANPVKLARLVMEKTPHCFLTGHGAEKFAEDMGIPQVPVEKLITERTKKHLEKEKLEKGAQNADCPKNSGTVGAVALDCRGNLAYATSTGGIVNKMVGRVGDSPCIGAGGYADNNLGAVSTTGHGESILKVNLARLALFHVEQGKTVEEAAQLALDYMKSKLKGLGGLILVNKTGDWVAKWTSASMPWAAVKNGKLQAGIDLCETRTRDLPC
Mthfd1l_IPI:IPI00228113.5 (mouse), sequence (Q3V3R1 32-977 limits assumed): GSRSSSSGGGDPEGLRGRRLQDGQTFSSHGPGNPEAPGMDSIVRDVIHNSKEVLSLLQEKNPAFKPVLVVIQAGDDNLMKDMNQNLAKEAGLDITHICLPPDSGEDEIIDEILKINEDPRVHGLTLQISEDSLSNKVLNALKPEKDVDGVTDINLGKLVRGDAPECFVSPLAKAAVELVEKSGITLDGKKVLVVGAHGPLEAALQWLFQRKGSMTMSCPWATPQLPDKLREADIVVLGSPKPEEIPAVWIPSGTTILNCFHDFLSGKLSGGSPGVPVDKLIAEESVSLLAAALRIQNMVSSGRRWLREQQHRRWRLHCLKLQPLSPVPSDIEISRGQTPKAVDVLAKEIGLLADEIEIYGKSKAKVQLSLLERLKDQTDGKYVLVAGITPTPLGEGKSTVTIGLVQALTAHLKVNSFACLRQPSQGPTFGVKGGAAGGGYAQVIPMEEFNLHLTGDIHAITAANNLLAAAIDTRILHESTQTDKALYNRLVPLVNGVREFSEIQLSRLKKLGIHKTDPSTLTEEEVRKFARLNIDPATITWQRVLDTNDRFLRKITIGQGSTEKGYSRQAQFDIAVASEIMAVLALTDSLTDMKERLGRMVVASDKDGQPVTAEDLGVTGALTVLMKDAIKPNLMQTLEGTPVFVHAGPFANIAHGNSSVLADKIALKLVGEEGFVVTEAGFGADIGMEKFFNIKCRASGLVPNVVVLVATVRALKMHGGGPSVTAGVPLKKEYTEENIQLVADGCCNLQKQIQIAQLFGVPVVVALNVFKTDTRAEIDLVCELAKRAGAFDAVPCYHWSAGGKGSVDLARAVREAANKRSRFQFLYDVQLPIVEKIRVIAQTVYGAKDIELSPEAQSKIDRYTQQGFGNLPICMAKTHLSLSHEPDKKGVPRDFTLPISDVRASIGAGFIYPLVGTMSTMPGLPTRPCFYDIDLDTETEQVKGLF

GST-Httex1-97Q (from UniProt P08515 1-218; P42858 1-88)
No. of total peptides [1]: 3 peptides
No. of unique peptides [1]: 3 peptides
No. of total peptides [2]: 1 peptides
No. of unique peptides [2]: 1 peptides
No. of total peptides [3]: 3 peptides
No. of unique peptides [3]: 2 peptides
No. of total peptides [4]: 1 peptides
No. of unique peptides [4]: 1 peptides
No. of total peptides [5]: 5 peptides
No. of unique peptides [5]: 4 peptides
No. of total peptides [6]: 1 peptides
No. of unique peptides [6]: 1 peptides
No. of total peptides [7]: 1 peptides
No. of unique peptides [7]: 1 peptides
No. of total peptides [8]: 3 peptides
No. of unique peptides [8]: 3 peptides
No. of total peptides [9]: 4 peptides
No. of unique peptides [9]: 4 peptides
No. of total peptides [10]: 2 peptides
No. of unique peptides [10]: 2 peptides
No. of total peptides [11]: 1 peptides
No. of unique peptides [11]: 1 peptides
No. of total peptides [12]: 4 peptides
No. of unique peptides [12]: 4 peptides
No. of total peptides [13]: 3 peptides
No. of unique peptides [13]: 3 peptides
No. of total peptides [14]: 2 peptides
No. of unique peptides [14]: 2 peptides
No. of total peptides [15]: 1 peptides
No. of unique peptides [15]: 1 peptides
No. of total peptides [16]: 1 peptides
No. of unique peptides [16]: 1 peptides
No. of total peptides [17]: 1 peptides
No. of unique peptides [17]: 1 peptides
No. of total peptides [18]: 2 peptides
No. of unique peptides [18]: 2 peptides
No. of total peptides [19]: 1 peptides
No. of unique peptides [19]: 1 peptides
No. of total peptides [20]: 1 peptides
No. of unique peptides [20]: 1 peptides
No. of total peptides [21]: 1 peptides
No. of unique peptides [21]: 1 peptides
No. of total peptides [22]: 3 peptides
No. of unique peptides [22]: 3 peptides
No. of total peptides [23]: 1 peptides
No. of unique peptides [23]: 1 peptides
No. of total peptides [24]: 3 peptides
No. of unique peptides [24]: 3 peptides
No. of total peptides [25]: 1 peptides
No. of unique peptides [25]: 1 peptides
No. of total peptides [26]: 1 peptides
No. of unique peptides [26]: 1 peptides
No. of total peptides [27]: 1 peptides
No. of unique peptides [27]: 1 peptides
No. of total peptides [28]: 1 peptides
No. of unique peptides [28]: 1 peptides
No. of total peptides [29]: 1 peptides
No. of unique peptides [29]: 1 peptides
No. of total peptides [30]: 1 peptides
No. of unique peptides [30]: 1 peptides
No. of total peptides [31]: 4 peptides
No. of unique peptides [31]: 3 peptides
No. of total peptides [32]: 1 peptides
No. of unique peptides [32]: 1 peptides
No. of total peptides [33]: 1 peptides
No. of unique peptides [33]: 1 peptides
